From patent US20120107299

Experiments:
[1] = target: FLAG-PTEN, P60484
[2] = target: T1, pSer380/pThr382/pThr 383 PTEN
T1 chain: EPDHYRYSDTTDSDPENE

[3] = target: T2, pThr383 PTEN
T2 chain: EPDHYRYSDTTDSDPENE

[4] = target: T3, pSer380 PTEN
T3 chain: EPDHYRYSDTTDSDPENE

[5] = target: T4, pThr382 PTEN
T4 chain: EPDHYRYSDTTDSDPENE

[6] = target: T5, pThr382/pThr 383 PTEN
T5 chain: EPDHYRYSDTTDSDPENE

B1: GST (Glutathione S-Transferase)-NDRG2 fusion protein (protein)
chain: MAELQEVQITEEKPLLPGQTPEAAKTHSVETPYGSVTFTVYGTPKPKRPAILTYHDVGLNYKSCFQPLFQFEDMQEIIQNFVRVHVDAPGMEEGAPVFPLGYQYPSLDQLADMIPCVLQYLNFSTIIGVGVGAGAYILARYALNHPDTVEGLVLINIDPNAKGWMDWAAHKLTGLTSSIPEMILGHLFSQEELSGNSELIQKYRNIITHAPNLDNIELYWNSYNNRRDLNFERGGDITLRCPVMLVVGDQAPHEDAVVECNSKLDPTQTSFLKMADSGGQPQLTQPGKLTEAFKYFLQGMGYMASSCMTRLSRSRTASLTSAASVDGNRSRSRTLSQSSESGTLSSGPPGHTMEVSC
- in vitro dephosphorylation of PTEN, Western blot with anti-PTEN antibodies specific to each phosphorylation [1]: dephosphorylation effects were recognized in BAP used as a positive control, and in GST-NDRG2
- phosphorylation status of PTEN protein by various PTEN phosphorylation antibodies after the reaction [1]: only S380, T382, and T383 are dephosphorylated by mixing with NDRG2, and S370 and S385 are not altered
- dot blot phosphatase assay, detection with rabbit anti-Phospho-PTEN (Ser380/Thr382/Thr383) polyclonal antibodies [2]: signals disappeared in the phosphorylated peptides at Thr382, Thr382/Thr383, and Ser380/Thr382/Thr383 by the reaction with NDRG2 protein
- dot blot phosphatase assay, detection with rabbit anti-phospho-PTEN (Ser380) polyclonal antibodies [2]: a signal disappeared in the phosphorylated peptide of Ser380/Thr382/Thr383 by the reaction with NDRG2 protein
- production level of the phosphoric acid groups (phosphopeptide phosphatase assay, BIOMOL GREEN) [2]: an increase in the production level of the phosphoric acid groups in the Thr382/Thr383 peptide and Ser380/Thr382/Thr383 peptide was recognized compared to the phosphorylation of Thr382 alone
- dephosphorylation of phosphorylated peptides (DOTBLOT method) [3]: cannot dephosphorylate the peptide wherein only S380 or only T383 is phosphorylated
- dephosphorylation of phosphorylated peptides (DOTBLOT method) [4]: cannot dephosphorylate the peptide wherein only S380 or only T383 is phosphorylated
- dephosphorylation activity (phosphopeptide phosphatase assay, free phosphate by BIOMOL GREEN) [5]: NDRG2 showed a dephosphorylation activity against the peptide including the phosphorylation at Thr382 of PTEN
- dot blot phosphatase assay, detection with rabbit anti-Phospho-PTEN (Ser380/Thr382/Thr383) polyclonal antibodies [5]: signals disappeared in the phosphorylated peptides at Thr382, Thr382/Thr383, and Ser380/Thr382/Thr383 by the reaction with NDRG2 protein
- dot blot phosphatase assay, detection with rabbit anti-Phospho-PTEN (Ser380/Thr382/Thr383) polyclonal antibodies [6]: signals disappeared in the phosphorylated peptides at Thr382, Thr382/Thr383, and Ser380/Thr382/Thr383 by the reaction with NDRG2 protein
- production level of the phosphoric acid groups (phosphopeptide phosphatase assay, BIOMOL GREEN) [6]: an increase in the production level of the phosphoric acid groups in the Thr382/Thr383 peptide and Ser380/Thr382/Thr383 peptide was recognized compared to the phosphorylation of Thr382 alone
